What was measured:
[1] = biological target: T1, human IL-13 (recombinant E. coli-expressed) (human, UniProt P35225 35-146); assay: Biacore T100 SPR, purified mAb captured on anti-human IgG, IL13 analyte, 1:1 fit
T1 construct: also called hIL-13
From the text: (§1) Table 1 details the overall affinities (equilibrium dissociation constant KD) for the selected constructs from the ProteOn screen and the T100 run

[2] = biological target: T1, human IL-13 (recombinant E. …); assay: Biacore T100 SPR, mAb captured on anti-human IgG, IL13 analyte
Experimental: as §1
(§2) In light of this, mutations at this residue that were not present in the initial screen were tested using the ProteOn using the same method as described earlier and again using antibodies direct from tissue culture supernatants.

[3] = biological target: T1, human IL-13 (recombinant E. …); assay: Biacore T100 SPR, mAb (supernatant) captured on anti-human IgG, IL13 analyte, 1:1 fit
From the text: as §1

[4] = biological target: T2, human IL-4 (recombinant E. coli-expressed) (human, UniProt P05112 25-153); assay: direct binding ELISA, plate coated with 5 µg/ml human IL-4, anti-human kappa light chain-HRP detection, absorbance at 490 nm
T2 sequence (looked up): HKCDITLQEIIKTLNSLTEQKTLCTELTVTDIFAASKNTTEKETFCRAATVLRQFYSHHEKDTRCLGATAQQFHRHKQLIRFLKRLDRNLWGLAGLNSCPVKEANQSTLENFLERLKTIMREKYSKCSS
Experimental: An ELISA was performed as described in example 4, coating 96-well high binding plates with 50 μl/well of recombinant E. coli-expressed human IL-4 at 5 μg/ml and incubated at +4° C. overnight.

[5] = biological target: T1, human IL-13 (recombinant E. …); assay: ProteOn XPR36 SPR, mAb (supernatant) captured on anti-human IgG, IL13 analyte
Experimental: The initial screen of CDRH3 mutants was carried out on the ProteOn XPR36 (Biorad). […] 3M MgCl₂ was used to regenerate the capture surface, removing the bound CDRH3 mutant antibodies ready for another cycle of capture and analyte injection. The data was fitted to the 1:1 model using the software inherent to the machine.
as §2

[6] = biological target: T2, human IL-4 (recombinant E. …); assay: Biacore T100 SPR, Protein A capture (CM5), human IL4 analyte, 1:1 fit
Experimental: Purified mAbs and mAbdAb constructs were tested in a BIAcore assay to determine whether the mutation of position 89 had any effect on the binding of the dAb to IL-4.
(§3) Protein A was immobilised on a CM5 chip by primary amine coupling; this surface was used as a capture surface for the antibody molecules to be tested. […] Regeneration of the anti-Protein A surface was achieved using 50 mM NaOH. The assay was run at 25° C. using HBS-EP as running buffer. The data was fitted to 1:1 model inherent to the Biacore T100 analysis software.

[7] = biological target: T2, human IL-4 (recombinant E. …); assay: Biacore T100 SPR, Protein A capture (CM5), 1:1 fit; paragraph 260 calls Table 20 IL13, its footnote and values point to IL4
Experimental: as §3, with “Regeneration” for “Regeneration of”, “Protein” for “anti-Protein”, “with” for “achieved using”

[8] = biological target: T2, human IL-4 (recombinant E. …); assay: cell-based or functional assay
[9] = biological target: T2, human IL-4 (recombinant E. …); assay: Biacore T100 SPR, Protein A capture (CM5), human IL4 analyte, 1:1 fit; remark: listed apart in the source
Experimental: (§4) Protein A was immobilised on a CM5 chip by primary amine coupling; this surface was used as a capture surface for the antibody molecules to be tested.
(§5) All binding curves were double referenced with a 0 nM injection (i.e. buffer alone). Regeneration of the Protein A surface was with 50 mM NaOH. The assay was run at 25° C. using HBS-EP as running buffer. The data was fitted to 1:1 model inherent to the Biacore T100 analysis software.

[10] = biological target: T1, human IL-13 (recombinant E. …); assay: Biacore T100 SPR, Protein A capture (CM5), human IL13 analyte, 1:1 fit
Experimental: Protein A was immobilised on a CM5 chip by primary amine coupling; this surface was used as a capture surface for the antibody molecules to be tested. […] All binding curves were double referenced with a 0 nM injection (i.e. buffer alone).
Regeneration of the Protein A surface was with 50 mM NaOH. The assay was run at 25° C. using HBS-EP as running buffer. The data was fitted to 1:1 model inherent to the Biacore T100 analysis software.

[11] = biological target: T2, human IL-4 (recombinant E. …); assay: direct binding ELISA, plate coated with 5 ug/ml human IL-4, anti-human kappa light chain-HRP detection, absorbance at 490 nm
Experimental: 96-well high binding plates were coated with 5 μg/ml human IL-4 (made at GSK) in NaHCO₃ and stored overnight at 4° C. The plates were washed twice with Tris-Buffered Saline with 0.05% of Tween-20 (TBST). 100 μL of blocking solution (1% BSA in TBST buffer) was added in each well and the plates were incubated for at least one hour at room temperature. The mAbdAbs were successively diluted across the plates in blocking solution. After one hour incubation, the plates were washed three times. Goat anti-human kappa light chain specific peroxidase conjugated antibody (Sigma A7164) was diluted in blocking solution to 1 μg/mL and 50 μL was added to each well. The plates were incubated for one hour. After another three washing steps, 50 μl of OPD (o-phenylenediamine dihydrochloride) SigmaFast substrate solution was added to each well and the reaction was stopped after about 5 minutes by addition of 25 μL of 3M sulphuric acid. Absorbance was read at 490 nm using the VersaMax Tunable Microplate Reader (Molecular Devices) using a basic endpoint protocol.

[12] = biological target: T2, human IL-4 (recombinant E. …); assay: Biacore T100 SPR, Protein A capture (CM5), human IL4 analyte
Experimental: as §4, §5

[13] = biological target: T2, human IL-4 (recombinant E. …); assay: Biacore T100 SPR, Protein A capture (C1 chip), human IL4 analyte, 1:1 fit; on-rate beyond the sensitivity of Biacore (footnote)
Experimental: as §3, with “Cl” for “CM5”, “Regeneration” for “Regeneration of”, “Protein” for “anti-Protein”, “with 100” for “achieved using 50”, “Phosphoric acid.” for “NaOH.”

[14] = biological target: T2, human IL-4 (recombinant E. …); assay: Biacore T100 SPR, Protein A capture (CM5), human IL4 analyte, 1:1 fit; footnote: rates not measurable
Experimental: as §4, §5

[15] = biological target: T2, human IL-4 (recombinant E. …); assay: Biacore T100 SPR, Protein A capture (C1 chip), human IL4 analyte, 1:1 fit
Experimental: as §3, with “Cl” for “CM5”, “Regeneration” for “Regeneration of”, “Protein” for “anti-Protein”, “with 100” for “achieved using 50”, “Phosphoric acid.” for “NaOH.”

T1 sequence (P35225 other isoform, or with tags, fused parts or gaps limits assumed): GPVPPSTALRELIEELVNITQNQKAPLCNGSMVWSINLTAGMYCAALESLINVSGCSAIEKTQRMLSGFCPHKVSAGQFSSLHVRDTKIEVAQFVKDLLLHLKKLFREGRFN

B1: A1Y100B ValL1 (antibody, human IgG1, kappa, V domains shown)
VH: QVQLVQSGAEVKKPGSSVKVSCKASGFYIKDTYMHWVRQAPGQGLEWMGTIDPANGNTKYVPKFQGRVTITADESTSTAYMELSSLRSEDTAVYYCARSIYDDYHVDDYYAMDYWGQGTLVTVSS
VL: DIVMTQSPLSLPVTPGEPASISCRSSQNIVHINGNTYLEWYLQKPGQSPRLLIYKISDRFSGVPDRFSGSGSGTDFTLKISRVEADDVGIYYCFQGSHVPWTFGQGTKLEIKR
notes: CDRH3 variant of A1L1; also called A1Y100BVAL1; 829 (mAb)
B1 gave a Kd [1] of 27 pM, a koff [1] of 2.12e-05 s⁻¹ and a kon [1] of 776000 M⁻¹ s⁻¹. For the same binder, the Kd [2] was 25 pM, the Kd [3] was 34 pM and the koff [3] was 3.45e-05 s⁻¹. For the same binder, the kon [3] was 1.02e+06 M⁻¹ s⁻¹, the binding result [4] was “no binding (tested: 10 µg/ml)” and the Kd [5] was 166 pM.

B2: BPC1085 (bispecific antibody, human IgG1, kappa)
heavy: not shown
light: DIVMTQSPLSLPVTPGEPASISCRSSQNIVHINGNTYLEWYLQKPGQSPRLLIYKISDRFSGVPDRFSGSGSGTDFTLKISRVEADDVGIYYCFQGSHVPWTFGQGTKLEIKRTVAAPSVFIFPPSDEQLKSGTASVVCLLNNFYPREAKVQWKVDNALQSGNSQESVTEQDSKDSTYSLSSTLTLSKADYEKHKVYACEVTHQGLSSPVTKSFNRGEC
notes: also called 829H-GS(TVAAPSGS)2-154 (89Q)
For B2, the Kd [6] was 52 pM, the Kd [7] was 48 pM and the “Mean ND50 value (nM), TF-1 cell proliferation bioassay” value [8] was 9.21 nM. For the same binder, the Kd [9] was 78 pM, the Kd [10] was 73 pM and the “EC50 (read off the curve)” value [11] was ~4000 pM.

B3: BPC1119 (bispecific antibody, human IgG1, kappa)
heavy: not shown
light: DIVMTQSPLSLPVTPGEPASISCRSSQNIVHINGNTYLEWYLQKPGQSPRLLIYKISDRFSGVPDRFSGSGSGTDFTLKISRVEADDVGIYYCFQGSHVPWTFGQGTKLEIKRTVAAPSVFIFPPSDEQLKSGTASVVCLLNNFYPREAKVQWKVDNALQSGNSQESVTEQDSKDSTYSLSSTLTLSKADYEKHKVYACEVTHQGLSSPVTKSFNRGEC
notes: mAbdAb; dAb Kabat 89 P; also called 829H-(TVAAPS)2GS-154 (89P)
B3: no binding (tested: IL4 up to 64 nM) [12].

B4: BPC2230 (bispecific antibody, human IgG1, kappa)
heavy: not shown
light: DIVMTQSPLSLPVTPGEPASISCRSSQNIVHINGNTYLEWYLQKPGQSPRLLIYKISDRFSGVPDRFSGSGSGTDFTLKISRVEADDVGIYYCFQGSHVPWTFGQGTKLEIKRTVAAPSVFIFPPSDEQLKSGTASVVCLLNNFYPREAKVQWKVDNALQSGNSQESVTEQDSKDSTYSLSSTLTLSKADYEKHKVYACEVTHQGLSSPVTKSFNRGEC
notes: mAbdAb with the original CDRH3 and the unmutated DOM9-155-154 dAb
For B4, the Kd [13] was 10 pM.

B5: BPC1113 (bispecific antibody, human IgG1, kappa)
heavy: not shown
light: DIVMTQSPLSLPVTPGEPASISCRSSQNIVHINGNTYLEWYLQKPGQSPRLLIYKISDRFSGVPDRFSGSGSGTDFTLKISRVEADDVGIYYCFQGSHVPWTFGQGTKLEIKRTVAAPSVFIFPPSDEQLKSGTASVVCLLNNFYPREAKVQWKVDNALQSGNSQESVTEQDSKDSTYSLSSTLTLSKADYEKHKVYACEVTHQGLSSPVTKSFNRGEC
notes: mAbdAb; dAb Kabat 89 D; also called 829H-(TVAAPS)2GS-154 (89D)
B5: no binding (tested: IL4 up to 64 nM) [12].

B6: BPC2231 (bispecific antibody, human IgG1, kappa)
heavy: not shown
light: DIVMTQSPLSLPVTPGEPASISCRSSQNIVHINGNTYLEWYLQKPGQSPRLLIYKISDRFSGVPDRFSGSGSGTDFTLKISRVEADDVGIYYCFQGSHVPWTFGQGTKLEIKRTVAAPSVFIFPPSDEQLKSGTASVVCLLNNFYPREAKVQWKVDNALQSGNSQESVTEQDSKDSTYSLSSTLTLSKADYEKHKVYACEVTHQGLSSPVTKSFNRGEC
notes: as for B4
With B6 the Kd [7] was 2 pM, the Kd [13] was 6 pM and the “EC50 (read off the curve)” value [11] was ~3000 pM.

B7: BPC1112 (bispecific antibody, human IgG1, kappa)
heavy: not shown
light: DIVMTQSPLSLPVTPGEPASISCRSSQNIVHINGNTYLEWYLQKPGQSPRLLIYKISDRFSGVPDRFSGSGSGTDFTLKISRVEADDVGIYYCFQGSHVPWTFGQGTKLEIKRTVAAPSVFIFPPSDEQLKSGTASVVCLLNNFYPREAKVQWKVDNALQSGNSQESVTEQDSKDSTYSLSSTLTLSKADYEKHKVYACEVTHQGLSSPVTKSFNRGEC
notes: mAbdAb; dAb Kabat 89 K; also called 829H-(TVAAPS)2GS-154 (89K)
B7 was tested, and the Kd [14] was 29000 pM and the koff [14] was 3.31 s⁻¹.

B8: BPC2223 (bispecific antibody, human IgG1, kappa)
heavy: not shown
light: DIVMTQSPLSLPVTPGEPASISCRSSQNIVHINGNTYLEWYLQKPGQSPRLLIYKISDRFSGVPDRFSGSGSGTDFTLKISRVEADDVGIYYCFQGSHVPWTFGQGTKLEIKRTVAAPSVFIFPPSDEQLKSGTASVVCLLNNFYPREAKVQWKVDNALQSGNSQESVTEQDSKDSTYSLSSTLTLSKADYEKHKVYACEVTHQGLSSPVTKSFNRGEC
notes: as for B4
Work on B8 yielded a Kd [6] of 10 pM and a Kd [15] of 18 pM.

Reference: patent US20120082682A1 (GlaxoSmithKline, published 2012)
